# Assay: soluble on expression in E. coli; label from the status in PepcDB or PDB records
row,Sequence,soluble on expression in E. coli
1,MGSDKIHHHHHHMPFITKISTQKKNTERFNIFLDDKYAFSVDADVLVKFELKKGKELDDLDIIEIQYGDEVKKGFNRALDFLSYRMRSTKEVEDHLKKKETSPPVIAEVIHRLNDYKYLNDQEFAAAYVSTHKKTNGKGPDVLFRELRAKGIDDDTIKEALSSFSFEDQTREAVKHVEKLLKKDKKLSTKELKQRAQLQLQRKGFSFDVISAAMDQIEYENDEDTEKEALRLHAEKAFRKYRYDGSYESAMKVKQFLFRKGFSLDLIEQLLQEEEY,not soluble
2,MTNERVMQLIREAYEKNLTTLDLSENQLTQLPSEITELKNLTTLNLSGNQLTQLPSEIGELKSLTSFDLSVNQLTQLPPEIGELKNLTILNVYRNQLIQLLPEITELKNLTTLDLSLNKLTQLPPEIGELEHHHHHH,not soluble
3,MKEKSIEDIVFEKFQPYINWSIDKLCEHFSINKGEKGLNYRIASAILNLKGKTTKSKPFPEVEEFEKSSIVVKTVHFNKKNVNKESMSFGAFKFEELANEEWEDSEGYPSAQWRNFLLETRFLFFVVKEDEDGVDIFKGIKFFSMPEEDINGPVKRMWDDTVKKLKEGVTLEAVPDKSTKDGWRIKNNFVDKSDDLICHVRPHTNNRDYRGGSNADKLPKKINWINRPDSDDYSDEWMTKQSFWINNDYIKKQVEDLL,soluble
4,MRLIVVSGQSGAGKSVALRVLEDLGYYCVDNLPVSLLTAFIQSVQGSQQNVAVSIDIRNLPKEPSLVQDVLDQLKQNNDVSMLFLDASKETLLKRYSETRRIHPLSLSQSKPSLAQAIELEKQLLGPLKEQADLLLDSSNQSLHELSETVRMRIEGRERKDLVMVFQSFGFKYGLPTDADYVFDVRFLPNPHWEPDLRPLTGLDAPIKSFLEGHSEVMELKQQIQKFFEYWLPMLEKNNRSYLTIAIGCTGGKHRSVYLTQQLGEYFAQLGHQVQLRHTSLEKQQS,not soluble
5,FYHDYTVTQDELLKDSSDALKKEFLKILDKAIKRLILMANGDTIVIPLSGGYDSRAIATMLKKNGYENVILYTYGKPDSTEVRVAREVAKNLEFEWIFVEQNEDIVDPDYPERDFFLEFYKYAFNHVSTIHLQDFFVFKHLHDNSVIPKNSIIVPGHSGDFLGGSHLRKLPIPKSKRDVFNTILIKHYIVNEHIKLSPYVVKKINEYLNSFSEHTLPYSLDDNWNMKERQAKFIVNSNRTYEFFGYRHAIPLWDLELVEFFRRVPLEYKTKEVIYSDALRESVFKDFGVVLSQKDVANTMALEFYHRIFHSMEIFRHIRYFAEKN,not soluble
6,MSAVLKKNKPFSILLMGTDTGALGRSDVGRTDTLMVATINPTKETAYLTSIPRDTRVTVGSGVNASVQKINAAYTIGGSKTAVKTVENLLDIPIDFYAIVNMGGLEKMVDAVGGVDVTPPLTFHYGAANVTKGKKTHLNGKQALAYSRMRHEDPLGDYGRQKRQRQVLQKMVVKAAGLSSITRYQTILKSLNGNLKTDLTFDDLMQIRAKYGDASHHIKSETLQGQDAMIDGLSYQVPTTSELKKVSNHIRKTLELANTTKFTTDADTDTTGSTAYGSSDNSGYGYLEHHHHHH,soluble
7,MENQVEVMTYAHLKEIMQALEANEAITEDTKVFIDTGWDSVQEVAPDAVSIEKVAKFTVADVLTNESFAGYSLEEKAEKMNAEGDLETAIIIRNLY,not soluble
8,MRDSIMQMCELCGKLTDKLYKVIIEGSEMNVCKECAKFGKSPKTYSRLGKKTIIGKGTITTNKQVKKPIKRRRDIFDTLPMLREDYGDVIREAREKRGLSIEELAKKLKMKASTLQKFERYELEPNEKEIKILEKELKISLTESIGEETSYYGGRDEDGFTLGDFIKIKK,not soluble
9,RQVQKELGDVLVRLHNPVVLTPTTVQVTWTVDRQPQFIQGYRVMYRQTSGLQATSSWQNLDAKVPTERSAVLVNLKKGVTYEIKVRPYFNEFQGMDSESKTVRTTEE,soluble
10,FFSNAEVAERLAYPQLIEALRIGLAKPCSAPLRNCHALPAQASLLQMPVWQAGAGIGVKLVTVFPGNGARGLPAVAAVFALFDGEDGRPLALLEASELTARRTACSSALAADYLARDDARRLLVVGCGTLAAHMVRAHACVRDYRHIDIWGRDPAKAAALAARLREEGYPARAADGLRAAVEAADCVSCVTTSREALVRGAWLKPGVHLDLVGAFLPSMRETDVLAVARARVVVDTRAGALEEAGDLLQAIAEGAIGREAISTELRDLLSGAGRRGDPGEITLFKSVGYALEDLVAARRVV,not soluble
11,AATTGYDAVDDLLHYHERGNGIQINGKDSFSNEQAGLFITRENQTWNGYKVFGQPVKLTFSFPDYKFSSTNVAGDTGLSKFSAEQQQQAKLSLQSWADVANITFTEVAAGQKANITFGNYSQDRPGHYDYGTQAYAFLPNTIWQGQDLGGQTWYNVNQSNVKHPATEDYGRQTFTHEIGHALGLSHPGDYNAGEGNPTYNDVTYAEDTRQFSLMSYWSETNTGGDNGGHYAAAPLLDDIAAIQHLYGANLSTRTGDTVYGFNSNTGRDFLSTTSNSQKVIFAAWDAGGNDTFDFSGYTANQRINLNEKSFSDVGGLKGNVSIAAGVTIENAIGGSGNDVIVGNAANNVLKGGAGNDVLFGGGGADELWGGAGKDIFVFSAASDSAPGASDWIRDFQKGIDKIDLSFFNKEANSSDFIHFVDHFSGTAGEALLSYNASSNVTDLSVNIGGHQAPDFLVKIVGQVDVATDFIV,soluble
12,MLKVLVVDDEMLARDELKYLLERTKEVEIIGEADCVEDALEELMQSRPDIVFLDIQLSDDNGFEIANILKKMKNPPAIVFATAYDQYALQAFEVDALDYILKPFDEERIVQTLKKYKKQKQSQIETKHEIKGTDVTVEMHKLALPIEESIVLVNIEDIVYVGLVDGKVTVKTMRETYVTHDTLVILEKKLPQVSFMRVHRSFIANINHITEIQPWFNSTYNLIMKEGSKVPVSRTYAKELKKLLRI,not soluble
13,RSTIGAGQKVNVEFVSANPTGPMHVGHVRGAVVGDALARLLAYAGWNVTREYYINDGGAQVDVLARSAFERYREAHGLEPEIREGLYPGDYLIPVGEALKAKYGDSLLDKGEQHWLTEVREFATEMMMQMIREDLAALGVEMDVYSSEKALYGTGKIEAALDRLKEMDLIYEGVLEPPKGKTPEDWEPREQTLFRSTAHGDDVDRPVKKSDGSWTYFAPDIAYHYDKVTRGFDQLIDIFGADHGGYVKRMKAAVAALSAGRVPLDIKLIQLVKLWKNGEPFKMSKRAGTYVTLRDVVEQVGTDVTRFVMLTRKNDATLDFDFDKVLEQSKENPVFYVQYANARINSVLRKAREQGMDVSDA,not soluble
14,MSLLIKNGTIVNDDAIFKSDVLVLDGRIVEIAPSIQPTPGLEVVDATDRLVIPGGIDPHTHMQLPFMGEIAKDDFHRGTEAAVAGGTTMIIDFVIPTKGESLLVAYDRWRGWADPKVVCDYGLSMAITSWGPEIAKEMEIVTGAEYGINSFKFFLAYAGVFMVRDEEFYQGMIQCAKLRALARVHAENGSVIAERCEHLLSSGITGPEGHTQSRPEELEAEATFRACTMASQANCPLYVVHVMSKGAAAAIAHHRKKGAVVFGEPIAAGLATDGSHYYNEDWLHAARYVMSPPLSRDPSTPSALMKLLAAGELHLTATDNCTFDCQQKSLGKDDFTKIPNGVNGVEDRMSVVWDKGVHAGIIDPMRFVAVTSTMAAKIFNCYPQKGRIAVGSDADIVIWNANATRTISKDTHHHAIDFNIFEGMQVHGVPEITISRGRTVWANGQLKTVQGSGQFIPLAPDSQIVFSAVDNRKKAMEPVKIDRIPYEPSALQTPDANANIVVKAPVRAAIPPGGASSIQF,not soluble
15,MGSDKIHHHHHHMKIVYIITQATWGGAQAHLYSLIKAQVMRGNAVALVYGVEGRLSASVAKEFQDVQVVRVASLVHPIAPLSDLKAIYTLRKLVKNWQPDIIHLHSSKAGMIGRLATIRLPMKVIFTVHGWGFTPGVGKKRQLLMKTIEKALSRLTTAYICVSQFDYDLGVQSGVITSAHPARVIHNGVTALTGANKATSSEVFVLSMAARFDTPKRQDILIQALTYLPENLPIVCHFLGDGPSIEACKTLTHQLNLDGKVNFYGVVDNVQKYYSQSDVGVLISDYEALPISLVEALAQGLPIIASNVGGIQELIDHNGFLVTNDARQIAEKILTLYQSKKIAEVKTNSYQMYQRHYTEHEMLEQTQAYYLRCLA,not soluble
16,MKLSAQSHASIASSLREAVDKYIADGERTVVTDIHLQPKQDSGELVIFNDDDEELSRTIIEEWVDYSEDDFYTIVERILRGEINALKDTGVLDKLAIMKPYSFVLVDEDRETVTELLLIDDEDTLLLNDELLKGLDEELDAFLKDLLEKLEHHHHHH,soluble
17,MSEPIRVLVTGAAGQIAYSLLYSIGNGSVFGKDQPIILVLLDITPMMGVLDGVLMELQDCALPLLKDVIATDKEDVAFKDLDVAILVGSMPRREGMERKDLLKANVKIFKSQGAALDKYAKKSVKVIVVGNPANTNCLTASKSAPSIPKENFSCLTRLDHNRAKAQIALKLGVTANDVKNVIIWGNHSSTQYPDVNHAKVKLQGKEVGVYEALKDDSWLKGEFVTTVQQRGAAVIKARKLSSAMSAAKAICDHVRDIWFGTPEGEFVSMGVISDGNSYGVPDDLLYSFPVVIKNKTWKFVEGLPINDFSREKMDLTAKELTEEKESAFEFLSSA,soluble
18,MGSDKIHHHHHHMKNLLGYSEDYLKERKGYITAKEICNQPKLWRETYEIILSQREKLKSFLDNFAKKPNAKIVITGAGSSAFVGNSVVSYLNAKENIKIEAIATTDIVSHPFYYLKKDEPTLLISCARSGNSPESTAAVTLAEKIVDDISHLIITCNSEGKLALHAKRNYNSFLLLMPEESNDKGFAMTGSFSTMLLSCLLIFNLDKLESIGKQIESISMQGEKVLVNNVELMKKIVGEKFKRTVYLGAANAFGLAKESALKVLELTAGKIATLYDTPLGFRHGPKSIIDDETLIVIFFSNDTYAREYEYDLLKEVYSQNGNHKVLAISEYEDKLIEDNSDYFIAINKEEQEYEDDSFLSLDYLLNAQMYAFINSMELGIGPDNPCPTGEVNRVVKGVIIHDYR,not soluble
19,MKKILLVFLVGTMAFAAYGAEGDVQVSKSVEDSITKDYDQDGVYSSYEKALRRAQESVYVTLPEKRGYWYTMLDRIKAEEEELMPDEQARMRRKR,not soluble
20,MSLGISNAIDNSVRARVLGIKTEFRNFNTGRTFFLPQHVALLGQGNTAATYELTPFRATSAAQVGQRFGFGSPLHLAALQLLPDNNDGLRSIPLTIFPMGDNDAGVAAEGVLDLSGTASATATVRVRIGSQRSSLVTIPTGTTAEQAAALLVAGIQGNPFMPMTAAVDGTNANEVDVTAKWQGLSGNDLVVSIEGSIPGITVAITQPTGGAADPEVADTLALFGENVWYTQIVSCFNTANTDALDAFETFGEGRWDPILRRPLAVFTGTNETDPNTLAAIGDARRAQRTNLVTPVPGAQNLPCEIAAAWVARVARSANNDPASDFARLTLPGLTPGTDAQQWTHTQRDLLVKAGISTSIVRDGVAEISDTVTTYHPTGEVNPGYLFYKDTVKASNVLFNLDLIFNTREWDGAPLIPDDQPTTNARAKRPKDAVAVLSVLANNLGLDAIISDVPFTLENIRASINDQNPNRLDIIFPAKNSGNANIISADYFFGFFLGTEGHHHHHH,soluble
21,MKSHVTDLTETLSSMEISRLEQQLTDFEAKKGSQIALLIIPTTQPETIEQYSIQVAEVWKLGRKGIDDGVLLLVAKNDRTLRIETGYGLEGVLPDALARRIIDEIIVPKFRQGHFFGGLQAGVEQIISIIEGETLPESLEHHHHHH,not soluble

# — the DeepSol protein solubility set
